From paper PMC5113954, “Characterization of the Sucrose Phosphate Phosphatase (SPP) Isoforms from Arabidopsis thaliana and Role of the S6PPc Domain in Dimerization” (PLoS ONE, 2016)
One block for each molecule: values may come before it.

What was measured:
S6PP domain of SPP2 = biological target: T1, S6PP domain of SPP2 (Arabidopsis thaliana, UniProt Q9SJ66); experiment: Pi release (SnCl2-molybdate), specific activity; format: biochemical; conditions: 1.25 mM Suc6P; 8 mM MgCl2, pH 7.0, 37 °C
T1 construct: N-terminal S6PP (HAD) domain only, C-terminal S6PPc domain removed; ends at ...IGHFKL by reverse primer P11; N-terminal His10 tag (pET-19b), E. coli; about 30 kDa monomer

SynSPP = biological target: T2, SynSPP (Synechocystis sp. PCC 6803, UniProt P74325); experiment: Pi release (SnCl2-molybdate), specific activity; format: biochemical; conditions: 1.25 mM Suc6P; 8 mM MgCl2, pH 7.0, 37 °C
T2 construct: gene slr0953; full length, N-terminal His6 tag (pQE-80L), E. coli BL21(DE3)

SPP3b = biological target: T3, SPP3b (Arabidopsis thaliana, UniProt Q93XN8); experiment: inhibition of Pi release from Suc6P (SnCl2-molybdate); format: biochemical
T3 construct: about 52 kDa subunit, about 90 kDa dimer; cDNA from RIKEN
T3 sequence (Q93XN8 1-423): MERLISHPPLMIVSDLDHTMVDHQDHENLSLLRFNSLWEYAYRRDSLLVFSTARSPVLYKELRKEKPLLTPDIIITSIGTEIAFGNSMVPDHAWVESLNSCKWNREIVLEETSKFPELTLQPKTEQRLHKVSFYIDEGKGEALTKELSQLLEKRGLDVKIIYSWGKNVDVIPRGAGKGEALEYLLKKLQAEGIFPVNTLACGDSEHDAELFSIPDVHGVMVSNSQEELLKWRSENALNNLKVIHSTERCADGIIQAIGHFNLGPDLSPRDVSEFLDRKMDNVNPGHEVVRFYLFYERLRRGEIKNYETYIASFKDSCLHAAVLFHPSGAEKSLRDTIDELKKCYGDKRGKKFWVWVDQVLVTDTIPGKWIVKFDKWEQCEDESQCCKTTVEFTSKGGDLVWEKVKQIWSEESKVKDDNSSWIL

[1] = biological target: Chimeric Synechocystis SPP fused at its C-terminus to the S6PPc domain of Arabidopsis SPP2 (SynSPP+S6PPc), His-tagged, from E. coli (Synechocystis sp. PCC 6803 | Arabidopsis thaliana); experiment: SEC; gel filtration of the purified His-tagged proteins; eluted fractions immunoblotted with anti-His antibodies (Fig 7, S1 Fig)
[2] = biological target: the molecule itself; experiment: SEC; Superose 12 10/300 GL, 25 mM HEPES-KOH pH 7.5, 150 mM KCl, 1 mM PMSF, without Mg2+, 0.4 ml/min; fractions followed by A280 and SPP activity; mass from a calibration curve of standards
[3] = substrate: O=P(O)(O)OC[C@H]1O[C@@](CO)(O[C@H]2O[C@H](CO)[C@@H](O)[C@H](O)[C@H]2O)[C@@H](O)[C@@H]1O; experiment: Pi release (SnCl2-molybdate), nonlinear regression; format: biochemical, Arabidopsis thaliana; conditions: 25 mM HEPES-KOH pH 7.0, 8 mM MgCl2, 37 °C
Excerpt: Pi release (SnCl2-molybdate), nonlinear regression on SPP2

[4] = substrate: O=P(O)(O)OC[C@H]1O[C@@](CO)(O[C@H]2O[C@H](CO)[C@@H](O)[C@H](O)[C@H]2O)[C@@H](O)[C@@H]1O; experiment: Pi release (SnCl2-molybdate), nonlinear regression; format: biochemical, Arabidopsis thaliana; conditions: 25 mM HEPES-KOH pH 7.0, 8 mM MgCl2, 37 °C; remark: listed apart in the source
Excerpt: Pi release (SnCl2-molybdate), nonlinear regression on SPP3a

[5] = substrate: O=P(O)(O)OC[C@H]1O[C@@](CO)(O[C@H]2O[C@H](CO)[C@@H](O)[C@H](O)[C@H]2O)[C@@H](O)[C@@H]1O; experiment: Pi release (SnCl2-molybdate), nonlinear regression; format: biochemical, Arabidopsis thaliana; conditions: 25 mM HEPES-KOH pH 7.0, 8 mM MgCl2, 37 °C; remark: listed apart in the source
Excerpt: Pi release (SnCl2-molybdate), nonlinear regression on SPP3b

T2 sequence (P74325 entry or part of it): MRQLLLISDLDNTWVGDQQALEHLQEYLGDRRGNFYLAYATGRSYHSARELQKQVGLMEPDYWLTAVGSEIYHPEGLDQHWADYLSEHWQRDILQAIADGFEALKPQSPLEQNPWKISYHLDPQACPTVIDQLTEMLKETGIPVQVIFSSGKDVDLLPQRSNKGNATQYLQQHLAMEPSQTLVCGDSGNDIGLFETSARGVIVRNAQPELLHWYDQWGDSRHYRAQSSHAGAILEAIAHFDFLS

Molecule: O=P(O)(O)OC[C@H]1O[C@@](CO)(O[C@H]2O[C@H](CO)[C@@H](O)[C@H](O)[C@H]2O)[C@@H](O)[C@@H]1O [Suc6P]
- Pi release (SnCl2-molybdate), specific activity (S6PP domain of SPP2): with an activity significantly lower than the native protein
- Pi release (SnCl2-molybdate), specific activity (SynSPP): The activity of each protein or chimera was determined as described in Materials and Methods

- Ki (SPP3b): 24 mM
Molecule: OC[C@H]1O[C@@](CO)(O[C@H]2O[C@H](CO)[C@@H](O)[C@H](O)[C@H]2O)[C@@H](O)[C@@H]1O [sucrose]

- stoichiometry N [1]: 2
Molecule: Chimeric Synechocystis SPP fused at its C-terminus to the S6PPc domain of Arabidopsis SPP2 (SynSPP+S6PPc), His-tagged, from E. coli (enzyme)

B1: Arabidopsis thaliana sucrose-phosphate phosphatase isoform SPP2, recombinant Nt-Histag (His10-SPP2, pET-19b) (enzyme, UniProt Q9SJ66 1-422, looked up)
chain: MERLTSPPRLMIVSDLDHTMVDHHDPENLSLLRFNSLWEHAYRHDSLLVFSTGRSPTLYKELRKEKPLLTPDITIMSVGTEITYGNSMVPDHGWVEALNNKWDLGIVKQEASNFPELKLQAETEQRPHKVSFYVEKSKAQEVTKELSQRFLKRGLDVKIIYSGGMDLDILPQGAGKGQALAYLLKKLKTEGKLPVNTLACGDSGNDAELFSIPDVYGVMVSNAQEELLKWHAENAKDNPKVIHAKERCAGGIIQAIGHFKLGPNLSPRDVSDFLEIKVENVNPGHEVVKFFLFYERWRRGEVENSEAYTASLKASVHPGGVFVHPSGTEKSLRDTIDELRKYHGDKQGKKFRVWADQVLATDTTPGTWIVKLDKWEQDGDERRCCTTTVKFTSKEGEGLVWEHVQQTWSKETMVKDDSSWII
notes: Sucrose-phosphate phosphatase SPP2 of Arabidopsis thaliana (At2g35840); cDNA from RIKEN, amplified with primers P5 (start codon) and P6 (stop codon); also called Nt-Histag SPP2; SSP2; source: E. coli BL21 (DE3), purified (HisTrap HP, Superose 12); not shown: His10, N-terminal, kept
- stoichiometry N [2]: 2
- Km [3]: 730 ± 320 µM
- kcat [3]: 67.8 s⁻¹
- kcat/Km [3]: 92500 M⁻¹ s⁻¹

B2: Arabidopsis thaliana sucrose-phosphate phosphatase isoform SPP3a, recombinant Nt-Histag (His10-SPP3a, pET-19b) (enzyme, UniProt Q93WU4 1-425, looked up)
chain: MDRLEGPPRLILVADLDCTLVDHDDPENNDLLRFNALWEAHYRHDSLLVYCTGRSFSSYSSLRKKRPLLTPDIAVTSVGSEIVYGGGESTVSDVVWTARLDYKWNRDIVVEETLKFPKLEPQPDKSQEEHKVSFFVGREDAVEIMKVLPGILEERGVDVKLVYSNGYAFDVLPRGAGKQGALTYLLDKLDIEGKQPSNTLVCGDSGNDAELFNISDVYGVMVSNSHEELLQWYEENAKDNPKIFHASERCGAGMIEAIQRFNLGPNVSPRDVMDTENFHGESLNPAHEVVQFYLFYERWRCGEVEKSDKYLQNLKSLSSPLGIFVHPSGVEKPIHEWIDEMENLYGDGKEKKFRIWLDNVTSSHISSDTWLAKFVKHELSEGKVRSCSTKVLLSYKEEKQRLTWMHIHQSWLDESSSDDQEKWIF
notes: Sucrose-phosphate phosphatase SPP3a of Arabidopsis thaliana (At3g54270); amplified from rosette leaf cDNA with primers P7 (start codon) and P8 (stop codon); source: E. coli BL21 (DE3), purified (HisTrap HP, Superose 12); not shown: His10, N-terminal, kept
- stoichiometry N [2]: 2
- Km [4]: 870 ± 390 µM
- kcat [4]: 0.396 s⁻¹
- kcat/Km [4]: 454 M⁻¹ s⁻¹

B3: Arabidopsis thaliana sucrose-phosphate phosphatase isoform SPP3b, recombinant Nt-Histag (His10-SPP3b, pET-19b) (enzyme, UniProt Q93XN8 1-423, looked up)
chain: MERLISHPPLMIVSDLDHTMVDHQDHENLSLLRFNSLWEYAYRRDSLLVFSTARSPVLYKELRKEKPLLTPDIIITSIGTEIAFGNSMVPDHAWVESLNSCKWNREIVLEETSKFPELTLQPKTEQRLHKVSFYIDEGKGEALTKELSQLLEKRGLDVKIIYSWGKNVDVIPRGAGKGEALEYLLKKLQAEGIFPVNTLACGDSEHDAELFSIPDVHGVMVSNSQEELLKWRSENALNNLKVIHSTERCADGIIQAIGHFNLGPDLSPRDVSEFLDRKMDNVNPGHEVVRFYLFYERLRRGEIKNYETYIASFKDSCLHAAVLFHPSGAEKSLRDTIDELKKCYGDKRGKKFWVWVDQVLVTDTIPGKWIVKFDKWEQCEDESQCCKTTVEFTSKGGDLVWEKVKQIWSEESKVKDDNSSWIL
notes: Sucrose-phosphate phosphatase SPP3b of Arabidopsis thaliana (At3g52340); cDNA from RIKEN, amplified with primers P9 (start codon) and P10 (stop codon); source: E. coli BL21 (DE3), purified (HisTrap HP, Superose 12); not shown: His10, N-terminal, kept
- stoichiometry N [2]: 2
- Km [5]: 3460 ± 710 µM
- kcat [5]: 3.59 s⁻¹
- kcat/Km [5]: 1040 M⁻¹ s⁻¹
